The text below walks through data of US9175313B2, “Three-dimensional structure of isoprene synthase and its use thereof for generating variants” (Danisco US Inc., priority 2009, dated 2015).

B1: NPC: P. alba MEA A453N L494P T536C (+) TEV; pDW108, SEQ ID NO: 83 (protein)
chain: MEARRSANYEPNSWDYDYLLSSDTDESIEVYKDKAKKLEAEVRREINNEKAEFLTLLELIDNVQRLGLGYRFESDIRGALDRFVSSGGFDAVTKTSLHGTALSFRLLRQHGFEVSQEAFSGFKDQNGNFLENLKEDIKAILSLYEASFLALEGENILDEAKVFAISHLKELSEEKIGKELAEQVNHALELPLHRRTQRLEAVWSIEAYRKKEDANQVLLELAILDYNMIQSVYQRDLRETSRWWRRVGLATKLHFARDRLIESFYWAVGVAFEPQYSDCRNSVAKMFSFVTIIDDIYDVYGTLDELELFTDAVERWDVNAINDLPDYMKLCFLALYNTINEIAYDNLKDKGENILPYLTKAWADLCNAFLQEAKWLYNKSTPTFDDYFGNAWKSSSGPLQLVFAYFAVVQNIKKEEIENLQKYHDTISRPSHIFRLCNDLASASAEIARGETNNSVSCYMRTKGISEELATESVMNLIDETWKKMNKEKLGGSPFAKPFVETAINLARQSHCTYHNGDAHTSPDELTRKRVLSVICEPILPFERENLYFQGLEHHHHHH
modifications: TEV site
B2: NSPC: P. alba MEA A453N G491S L494P T536C (+) TEV; pDW109, SEQ ID NO: 85 (protein)
chain: B1 chain with G491S
modifications: TEV site
B3: NSC: P. alba MEA A453N G491S T536C (+) TEV; pDW107, SEQ ID NO: 81 (protein)
chain: B1 chain with G491S, P494L
modifications: TEV site
B4: NSP: P. alba MEA A453N G491S L494P (+) TEV; pDW106, SEQ ID NO: 79 (protein)
chain: B1 chain with G491S, C536T
modifications: TEV site

Substitutions are numbered along the chain they refer to. In names and notes the source's numbering stands.

One assay in a line: Specific activity measurement of purified isoprene synthase variants (4 mM DMAPP, 30 C, GC-MS headspace). The class given is biochemical. As to conditions: 50 mM NaCl, 50 mM Tris pH = 8, 30° C. The method, then: 1. Initial Purification—Resuspend the pellet in 3 ml of fresh lysis buffer. Break cells by passing them through the French Press using the small cylinder. Centrifuge samples for 1 hour at 30,000×G and collect the supernatant. Retain pellet in order to test for presence of insoluble protein. Pre equilibrate 0.5 mL Ni Sepharose 6 Fast Flow resin (Amersham) in a 20 ml disposable column with 10 mL of Ni wash buffer. Add protein to column and shake for 60 min at 4 C to bind protein. Elute protein with 2.5 mL Ni elution buffer.
2. Buffer Exchange—Equilibrate a PD-10 column (GE Healthcare) with 25 mL of PD-10 buffer. Load protein on to column and elute with 3.5 mL of PD-10 buffer.
10 uL of purified enzyme was incubated with 4 mM DMAPP, 50 mM MgCl2 in a buffer containing 50 mM Tris and 50 mM NaCl (pH=8) to a final volume of 100 uL for 15 min. at 30 C in gas tight 2 mL vials. Reactions were terminated with the addition of 100 uL of […] EDTA, pH=8. Samples were analyzed by GC-MS to determine the concentration of isoprene in the headspace of the vials. All specific activity measurements were performed in triplicate.
Protein concentration was determined by measuring the absorbance of each protein solution at 280 nm on a Helwlett Pachard 8453 UV-Vis spectrophotometer and converting the absorbance to protein concentration using the extinction coefficient as determined on the Expasy website (Gasteiger E., Hoogland C., Gattiker A., Duvaud S., Wilkins M. R., Appel R. D., Bairoch A.; Protein Identification and Analysis Tools on the ExPASy Server; (In) John M. Walker (ed): The Proteomics Protocols Handbook, Humana Press (2005). pp. 571-607). The protein concentrations of isoprene synthase variants assayed for KM and kcat determination were verified by comparative gel electrophoresis of a dilution series of each protein (FIG. 61).
B1 came in with a S.A. of 440 ± 20 nmol/mg/min.
In turn, B2 showed a S.A. of 502 ± 6 nmol/mg/min.
As to B3, the S.A. is given as 390 ± 20 nmol/mg/min.
Consider B4, for which the S.A. amounted to 465 ± 2 nmol/mg/min.

The assay is the same for the next values; noted with them: 50 mM NaCl, 50 mM Tris pH = 8, 30° C., ratio to WT.
As to B1, the “Variant S.A./WT S.A.” value was found to be 0.9.
Still for that read-out and setting: in the case of B2 it was 1.1.
In the case of B3, the “Variant S.A./WT S.A.” value is 0.8.
For B4, the “Variant S.A./WT S.A.” value is 1.0.
